Results taken from the nanobody polyreactivity screen of Harvey et al. (2022).

Assay: yeast display, Sf9 membrane polyspecificity reagent, FACS + sequencing; frameworks hold sequencing errors
How it was run: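 Sorting gates, low and high (top ~1%), were placed on anti-HA fluorescence to track expression and on streptavidin fluorescence to track reagent binding. A clone's polyreactivity label is taken from the gate it came out of. The reagent was 10% biotinylated, detergent-solubilized Sf9 membrane, applied for 1 hour at 4 °C to galactose-induced yeast display cells.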

Row | Sequence | polyreactivity (PSR sort gate)
1 | QVQLQESGGGLVQASGSLRLSCAASGNIFPDYVMGWYRLAPGKEREFVANITGGSTTNYADSVKGRFTIIRDNAKNTVYLQMNSLKAEDTAVYYCAVNFGTVVLYLYWGQGTQVTVSS | high polyreactivity
2 | QVQLQESGGGLVQSGGSLRLSCAASGYISSWYPMGWYRHAPGKEREFVATIAPGATTYYADSVKGRFTISRDYAKNTVYLQMNSLKPEDTAVYYCAAGPENNDFYSYWGQGTQVTVSS | low polyreactivity
3 | QVQLQESGGGLVQVGGSLRLTCAASGTIFIYGFLGWNRQAPGKERELVASINLGGITNYADSVKGRFTISRDNAKNTVYLQMISLKPEDTAVYYCAAYVVTGQNYGYWGQGTQVTVSS | low polyreactivity
4 | QVQLQESGGGMVQAGGSLRLSCAASGYISWADYMGWYRQAPGKERELVAGIGYGSTTYYADSVKGRFTISRDNAKNTAYLQMNSLKPEDTAVYYCAVGWYRVTAYKYWGQGTQVTVSS | low polyreactivity
5 | QVQLQESGGGMVQAGGSQRLSCAASGYISWADYMGWYRKATGKERELVAGIGYGSTTYYADSVKGLFTISRDNANNTAYLQMNSLKPEDTAVYYCAVGWYRDTAYKYWGQGTQVTVSS | low polyreactivity
6 | QVQLQESGGGPVLAGGSLRLSCAASGTIFVRLDMGWYRQAPGKEREFVATIGSGSSTYYADSVKGSFTISRDNVKNPVYLQMNSLKPEDTAVYYCAVSAAEQSRHYYWDQGTQVTVSS | low polyreactivity
7 | QVQLQESGGGQVQAGGSLRLSCAASGTIFLYAFMGWYRQAPGKERELVAAIDVGTTTNYADSVKGRFTISRDNAKNTVYLQMNSLKPEDTAVYYCAAPYVSWDYRYYYWGQGTQVTVSS | low polyreactivity
8 | QVQLQESGGLVQAGGLRLSSAASGSVSYQEAMGWYRQAPGKERELVATISFGANTNYADSVKGRFTISRDNAKNTVYLQMNSLKPEDTAVYYCAAESLFDDYYGYWGQGTQVTVSS | low polyreactivity
9 | QVQLQESGGLVQAGGMRLSCEASGSVSYQEAMGWYRQAPGKERELVATISFGANTNYADIVKGRFTISRDNAKNTVYLQMNSLKPEDTAVYYCAAESLFDDYYGYWGQGTQVTVSS | low polyreactivity
10 | QVQLQESGGRLVQAGVSLRLSCAASGSIYDDTYMGWYRQAPGKERELVATIDSGSTTNYADSVKGRITISRDNAKNTVYLQMNSLKPEDTAVYYCAAADSHIDYFDYWGQGTQVTVSS | low polyreactivity
11 | QVQLQESGGRMVQAGGSLRLSCAASGYISWADYKGWYRQAPGKERELVAGIGYGSTTYYADSVKGRFTISRDNAKNTSYLQMNSLKPEDTAVYYCAVGWYRDSAYKYWGQGTQVTVSS | low polyreactivity
12 | QVQLQESGGVQAGGSLRLSCAASGYISRSDVKGWYRQAPGKERELVATINNGTITYYADSVKGRFTISRDNAKNTVYLQMNSLKPEDTAVHYCAVVQSDTDSLYYWGQGTQVTVSS | low polyreactivity
13 | QVQLQESGGVQVQAGGSLRLSCAASGYISTHYFMGWYRQAPGKDREFVAGISNGSITNYADSVKGRFTISRDNARNTVYLQMNSLKPEDTAVYYGAAYEWTYVRFGYWGQGTLVTVSS | high polyreactivity
14 | QVQLQESGRGLVQAGGSLRLSCAASGYISYFVGMGWYRQAPGKEREFVASIADGSNTYYADSVKGRFTISRDNAKNTVCLQRNSLKPEVTAVYYCAVEDSWTYRFDYWGEGTQVTVSS | high polyreactivity
15 | QVQLQESGRRPGAAGGSPRMSCAASGNIFWVAVMGRYRQAPGKERELVASIGFGCTTYYADSVKCRFTISRDNAKNTVFLQLISLKPEDTAVYYCAAPLYDWGELDDWGQGTQVPVSS | low polyreactivity
16 | QVQLQESGRRPGAAGGSPRMSCAASGNIFWVAVMGRYRQAPGKERELVASIGFGCTTYYADSVKCRFTISRDNAKNTVYLQMISLQPEDTAVYYCAAPHYDWGELDYWGQGTQVPVSS | low polyreactivity
17 | QVQLQESRGGLVQEGGSLRLSSAASGNISPPAHMGWYRPAPGKQRELVASIGNGRTTNYADSVKGRFTISRHNANNTVYLQMYSLKPDETAVYYCSAVRYEYNPYDYWGQGTQVTVSS | low polyreactivity
18 | QVQLQESRGGQVQEGGSLRLSCAASGNISPPADMGWYRQAPGKERELVASIGTGGTTNYADSVKGRFTISRDNAKNTVYLQMKSLKPDDTAVYYCAAVRFEYNPYDYWGQGTQVTVSS | low polyreactivity
19 | QVQLQESVGGLVQAGGSLRLSCAASGNIFPTDRMGWYRQAPGKELEFVATNSHGGSTNYADSVKGRFTISRDNAKNTVYLQMNSLKPEDTAVYYCAVWSLGRWRHYYWGQGTQVTVSS | low polyreactivity
20 | QVQLQESVGGLVQAGGSLRLSCAASGTIFRISDMGSYRQAPGKEREFVAAITYGANTYYADSGKGRFTISRDNAKNTVYLQMNSLKPEDTAVYYCAVPPVKETILDYWGQGTQVTVSS | low polyreactivity
21 | QVQLQESVGGLVQAGGSLRLSCAATGTIFTDRFMGWYRQAPGKERELVAGISQGTSTNYADSVKGRFTISRDNAKNTVYLQMNSLKPEDTAVYYCAADLSTGNTLPYWGQGTQVTVSS | high polyreactivity
22 | QVQLQESVVGLVQAGGSLRLSCAASGNIIPTDRMGWYRQAPGKELEFVATISHGGSTNYADSVKGRFTISRDNAKNTVYLQMNSLKPEDTAVYYCAVWSLGSWRHYYWGQGTQVTVSS | low polyreactivity

Row | Sequence | polyreactivity (PSR sort gate)
23 | QVQLQGSGGGLVQAGGSLRLSCAASGYIFQNVPMGWNRQAPCKERELVAGIDNGTSTNYADSVNGRFTISRDNAKNTVYLQMNSLKPEDTAVYYCAAAGQADDTLGYWGQGTQVTVSS | low polyreactivity
24 | QVQLQGSGGGLVQAGGSLRLSCAASGYIFQNVPMGWNRQAPGKERELVAGIDNGTSTNYADSVNGRFTISRDNAKNTVYLQMNSLNPVDTAVYYCAAAGQADDTLGYWGQGTQVTVSS | low polyreactivity
25 | QVQLQGSGGGLVQSGGSLRLSCAASGKIFDADIMGWYRQAPGKESELVASITHGGSTNYADSVKGRFTISRDNAKNNVYLQMNSLIQEDTAVYYCAAIAYPDIPTYFDYDSDCFYWSQGTQVTVSS | high polyreactivity
26 | QVQLQLSGGDLVQAGRSLRLSCAASGTIYGLTSMGWYRQAQAKEREFVAAITDGGKTNYADSVKGRFTISRDNAKNTVYLQMIRLKPEDTAVYYCAVLFSDDAYYAYWGQGTQVTVSS | low polyreactivity
27 | QVQLQVRGGDLVQAGGSLRLSCAASGTIYRLTTMGWYRQAPGKEREFVAAITDGGNTNYADSVKGRFTISRDNAKNTVYLQMICLKPEDTAVYYCAVLFSDDAYYAYWGQGTQVTVSS | low polyreactivity
28 | QVQLQVSGGHLVQAGGSLRLSCAASGTIYGLTSMGWYSQAPGKEREFVAAITDGGNTNYADSVKGRFTISRDNAKNTVYLQMISLKPEDTSVYYCAFLFSDDAYFAYWGQGTQVTLSS | low polyreactivity
29 | QVQLRESGAGGRQPAPELRGERQYFYWSADGLVSQPPGKEREFVAGIDRGTITNYADSVRGRFTISRDNAKNTVYLQMNSLKPEDTAVYYCNAEYRRRPKLGDEDEYWGHGTQVTVSS | high polyreactivity
30 | QVQLVASAAGLVQAVGSLRLSCAASASTIGYYAMGWSRQAPGKERELVAAISWSGGSTYYADSVKGRFTISRDNAKNTVYLQMNSLKPEDTAVYFCAADTYPDYYLVEYYYWGQGTQVTVSS | low polyreactivity
31 | QVQLVASGGGLVQAGGSLRLSFAASGRNFAYNTMGWYRQAPGKERELVAAITWSGGGKYYADSVKGRFTISRDNAKNTVYLHMNSLKPEDTAVYYCAVVYASPRARYRYYYWGQGTQVTVSS | low polyreactivity
32 | QVQLVASGGRLVQAGGSLRLSCASSGSIFGWYAMGWYRQAPGKERELVAVITSGGSTYYADSVKGRFTISRDNAKNTVYLQMNSLKPVDTAVYYCNARYHAGYKGYNYWGQGTQVTVSS | high polyreactivity
33 | QVQLVDSAGGLVQAGGSLRLSCAASGLTFPPNAMGWYRQAPGKEREFVAVISSGGGSTYYADSVKGRFTISRDNAKNTVYLQMNSLKPEDTAVYYCATEYQDGDTEYYYWGQGTQVTVSS | low polyreactivity
34 | QVQLVDSCGGLVQAGGSLSLSCAASGRTFTRYAMGWYRQAPGKERELVASITNGGGTYYADSVKGRFTISRDNAKNTVYLQMNSLKPEDTAVYYCAKAERVTSHIYYSWGQGTQVTVSS | low polyreactivity
35 | QVQLVDSGAGLVQAGGSLRLSCPASGRIFAVNAMGWYRKAPGKERELVAAINGGGSTNYADSVKGRFTISRDNAKNTVYLQMNSLKPQDTAVYYCAADVGWRSQTRGYYWGQGTQVTVSS | high polyreactivity
36 | QVQLVDSGGAIVQAGGSLRLSCAASGRTYHRNSKGWYRQAPGKERELVAAITGDGRTNYADSVKGRFTISRDNAKNTVFLPINSLKPEDTAVYYCAATFGFFYYHYDYWGQGTQVTVSS | low polyreactivity
37 | QVQLVDSGGGIGQAGASLRLSCAASGRNFAVYAIGWYRQAPGKERELVAAITRNGGSTYADSVKGRFTISRDNAKNTVYFQMNSLKPDDTAVYYCNAVAYIYSYAYPPYWGREHLNYWGQGTQLTVSS | low polyreactivity
38 | QVQLVDSGGGLFQAGGSHRLSFAASGSILRSNAMGWYRQAPGKERELVAVINGSGGRTYYADSVKGRFTISRDNAKNTVYLQMNSLKPEDTAVYYCNADPGGRYPRRGYAHEGDYWGQGTKVTVSS | low polyreactivity
39 | QVQLVDSGGGLVHAGGSLRLSCAASGRTFFINTMGWYRQPPGKEREFVAAITWSAGRTYYADSVKGRITISRDNAKNTVYLQMISLKPEDTAVYYCAAALDGHTFPFYYWGQGTQVTVSS | low polyreactivity
40 | QVQLVDSGGGLVHAGGSLSLSCAASGRIFSHYALGWYRQAPGKERELVAAISSRGGRTYYADSVKGRFTISRDNAKNTVYLQMNSLKPEDPAVYYCAAVIRSVYSYYEYDYWGQCTQVTVSS | high polyreactivity
41 | QVQLVDSGGGLVQAGASLRLSCAASGIIFWSYTMGWYRQAPGKERELVAAINWSGTRTYYADSVKGRFTISRDNAKNTVYLQMNSLKTEDTAVYYCNADSRYRSFDYWGQGTQVTVSS | high polyreactivity
42 | QVQLVDSGGGLVQAGASLRLSCAASGSTLSYYTMGWYRQAPGKERELVAAISWRGGSTYYADSVKGRFTISRDNAKNTVYLQMNSLKPEDTAVYYCATAIRGSPDSSLYYYWGQGTQVTLSS | high polyreactivity
43 | QVQLVDSGGGLVQAGCSIRITCSATGITFVANTKGWYRQEPVKERELVDTITSSGGSTYYADSVKGRFTISRDNAKNSVYLQMNSLKPEDTAVFYCAASDLRYRGNYVYLPSEYWGQGSQVTVSS | low polyreactivity
